Laboratory results: paper PMC10302166, “Molecular basis and dual ligand regulation of tetrameric estrogen receptor α/14-3-3ζ protein complex” (The Journal of Biological Chemistry, 2023)
Changes are numbered by the printed parent chain. Where no end group is shown, it is not given here.

Assays:
[1] = target: T1, ERα-Y537S LBD-F-strep (PKA-responsive), without 14-3-3ζ (human (from the printed UniProt entry), UniProt P03372 302-595, S305A | Y537S | F591R | P592R); assay: fluorescence polarisation; fluorescence anisotropy; ERα or complex titrated (2-fold series from 40 μM ERα) to 20 nM fluorescein-labeled SRC1 peptide; DMSO control; 20 mM HEPES pH 7.5, 150 mM NaCl, 10 mM MgCl2, 0.1% Tween20, 0.1% BSA; room temperature; apparent KD (4PL fit); conditions: both partners purified
T1 construct: the methods list ERα(PKA)-strep and ERα(PKA)-pT594-strep 'for WT ERα and Y537S mutant'; also called apo ERα-Y537S
T1 sequence (looked up): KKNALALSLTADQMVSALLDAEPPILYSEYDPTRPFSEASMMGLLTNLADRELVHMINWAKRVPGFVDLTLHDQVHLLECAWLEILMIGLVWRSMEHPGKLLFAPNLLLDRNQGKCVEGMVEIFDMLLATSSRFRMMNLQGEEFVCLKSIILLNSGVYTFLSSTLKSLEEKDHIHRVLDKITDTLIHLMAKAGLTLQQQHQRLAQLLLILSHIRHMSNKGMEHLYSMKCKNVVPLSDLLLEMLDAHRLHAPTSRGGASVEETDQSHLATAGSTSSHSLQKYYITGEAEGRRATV

[2] = target: T2, ERαLBD-F-strep (PKA-responsive, non-phosphorylated) (human (from the printed UniProt entry), UniProt P03372 302-595, S305A | F591R | P592R); assay: as above; conditions: both partners purified
T2 construct: also called ERα-strep; ERα(PKA)-strep; source: E. coli NiCo21 (DE3), purified (Ni-NTA, SUMO cleavage, Strep-Tactin, SEC); not shown: His tag, N-terminal, cleaved; SUMO, N-terminal, cleaved; strep-tag, C-terminal, kept
T2 sequence (looked up): T1 sequence (looked up) with S236Y

[3] = target: T3, ERα-pT594-strep (ERαLBD-F-strep phosphorylated in vitro by PKA) (human (from the printed UniProt entry), UniProt P03372 302-595, S305A | F591R | P592R, phosphothreonine at T594); assay: as above; conditions: both partners purified
T3 construct: also called ERα(PKA)-pT594-strep; phosphorylated ERα; source: E. coli NiCo21 (DE3), phosphorylated in vitro with His-PKA-strep and ATP, purified (Ni-NTA, Strep-Tactin, SEC); not shown: His tag, N-terminal, cleaved; SUMO, N-terminal, cleaved; strep-tag, C-terminal, kept
T3 sequence (looked up): T1 sequence (looked up) with S236Y

[4] = target: T4, ERα-Y537S/14-3-3ζ protein complex (human (from the printed UniProt entry) …, UniProt P03372 302-595; P63104 1-245, Y537S | F591R | P592R, phosphothreonine at T594); assay: FP; DMSO
T4 sequence (P63104 whole entry, stated change not applied, one chain of several): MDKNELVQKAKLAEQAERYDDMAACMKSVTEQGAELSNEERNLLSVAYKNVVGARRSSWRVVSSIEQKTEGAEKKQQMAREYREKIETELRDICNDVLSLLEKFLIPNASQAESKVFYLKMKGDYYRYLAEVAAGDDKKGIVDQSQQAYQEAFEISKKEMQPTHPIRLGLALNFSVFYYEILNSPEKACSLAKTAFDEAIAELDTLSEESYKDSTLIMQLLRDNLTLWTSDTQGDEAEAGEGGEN

[5] = target: T4, ERα-Y537S/14-3-3ζ protein complex; assay: FP; 100 uM E2
[6] = target: ERα-pT594-strep (ERαLBD-F-strep phosphorylated in vitro by PKA) (human (from the printed UniProt entry), UniProt P03372 302-595, S305A | F591R | P592R, phosphothreonine at T594); assay: FP; 100 uM E2
[7] = target: T1, ERα-Y537S LBD-F-strep (PKA-responsive), …; assay: fluorescence polarisation; as a10 but in the presence of 100 μM E2; apparent KD; conditions: both partners purified
[8] = target: T2, ERαLBD-F-strep (PKA-responsive, …); assay: as above; conditions: both partners purified
[9] = target: T3, ERα-pT594-strep (ERαLBD-F-strep …); assay: as above; conditions: both partners purified

## LTERHKILHRLLQEGSPSD (also: fluorescein (FITC) label, position not given here) [fluorescein-labeled SRC-1 cofactor peptide (LXXLL motif of SRC-1/NCoA-1)]
[1]
  Kd: 1700 nM
[2]
  Kd: ~20000 nM
[3]
  Kd: ~20000 nM
[4]
  Kd: 700 nM
[5]
  Kd: 400 nM
[6]
  Kd: 900 nM
[7]
  Kd: 800 nM
[8]
  Kd: 1000 nM
[9]
  Kd: 1000 nM
